In article PMC3781837 one finds binding data, which are given here for 9 sequences.

The data set deals with WhiA (Streptomyces venezuelae) (UniProt F2RGQ4). The data set is described as follows: DNase I footprinting. The conditions noted are these: DNase I footprinting per Sure Track kit (Amersham); buffer, salt, pH and temperature not given in the material.
Chain of UniProt F2RGQ4 (F2RGQ4 whole entry): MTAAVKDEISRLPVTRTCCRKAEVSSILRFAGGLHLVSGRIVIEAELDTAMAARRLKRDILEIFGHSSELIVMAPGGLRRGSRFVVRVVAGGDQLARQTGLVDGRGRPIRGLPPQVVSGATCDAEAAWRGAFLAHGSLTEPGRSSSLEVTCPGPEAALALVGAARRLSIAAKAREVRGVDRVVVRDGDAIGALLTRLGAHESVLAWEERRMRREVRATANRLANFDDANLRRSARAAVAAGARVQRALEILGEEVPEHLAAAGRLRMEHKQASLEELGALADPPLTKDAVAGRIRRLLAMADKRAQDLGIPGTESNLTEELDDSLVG

Consider “AGCATCCGGTGCACCCTCCCAGTGTCGCACCCGAAGGTGTCGAATCCCGGGAGTGGGCCCGCCGCGACACGCGGAGGGCCCGGAATCGCCTTTAACCCAAGATCTAGTGGTTGGATGGCATCGG (double strand) [nrdR promoter probe]”, for which the binding result is “binds”.

As for “CCGGAATTCCCACTCAAAAGGCTGGACATTCTCCAGATCAAACGGGCATACGCTCGATGACACGCCGCTTCGGCCCCTAGGATTCCCTCTAACACCTCACCGGTCTCATTCGACAGGAAACCCATGAGCGACACATCCTCCCCCTTCGGCTTCGAGCTCGTGCGGCGCGGTTAGGATCCGCG (double strand) [filP promoter probe]”, the binding result is “binds”.

In the case of “GAACTGGTGGAGAAGTCGGCGAAGCGCTTGCGCGGGGCCGTCCTGATCGGTGCCGACCGCGCCCTGATCCGCGAAGCCCTGGCGCGACACGCCCCGGAGGTACCGGTGGTGGACCTCGACCGGACCGACACTGGGGCGATGTCCGAGGCGGTC (double strand) [ftsW promoter probe]”, the binding entry is listed as “binds”.

For the sequence “GACATACCCACTCGGACTACTCCAGTCGACACGCCGAGGGTTTGCCCCTTTTGTAGGGATATCGACCCGTTCGACGACAGCTGGAGGCACCGTGCGGCCGGGAGGCTACGACTACGACAC (double strand) [cslA promoter probe]”, the binding entry is “binds”.

Consider “GACGTGCCGCGCATCCGGGCGGCCACGGACCTGGGCAACGTCCCGATGGCCGCGGCGTTCGCCCGGGCGGGTTACGACGCCTTCGAGCACGCGATCAACTACGTGTGGGACGCGCCGGGCGTGGCGGGTCCCTGACTGCCAGGATGGGGGCGTAGGTCCGTCGACGAGGGGATTTGGCGTGCTCTTCGAGGTGTGGGC (double strand) [treZ promoter probe]”, for which the binding result is on record as “binds”.

As for “GCGCCGCAGCCCGGAGAAACCGAGGGCTTCTCCCCGCAGCGTCATTTGGAGGTTTTGGGACGACACGCCCCTAAACTCGCCCTGGACGTGGTGCTGGCCGACGAGGCCGCCGTGCCCGACCGCGAGTCCCTCGCCGACGCCGCCAAGCGGCTCGGTGCCGC (double strand) [whiAp2 promoter probe]”, the binding result is “binds”.

Turning to “GCTGCTCCACTCCACCAACGTAGGTCGGGAAGGGGCGGGAACCGGGTCCGGGACACGCCCTTTGGGTGACCTTGCCCCCGAGAACGACCGAAGGTCGGCGTCG (double strand) [sven4724-sven4725 intergenic probe]”, the binding result is listed as “binds”.

Regarding “GGCGGTACGGGAGCGGCCGACGCAGACTGGGAGGAGCGCCCTCTTTCCCGGAGTGCTGGAGGAACCACGGTATGACCGACCTCGCCATCGAGACCGAGGGCCTGGTCAAGGTCTTCGGCAGCAACCGCGCCGTCGACGGGATCGACCTCCGCGTCCCCGCCGGAATCGTCTACGGAGTCCTTGGCCCCAACGGCGC (double strand) [sven3535 promoter probe]”, the binding result is “no binding”.

In the case of “GTCTCGCGCATGTGAGGGGCGGTGCCGCGCGGGGCACCGGGCCCGGCGGGCCCGGGCCGCACCGACGCGCCGGAATGATCGCTAAGAGGAAATTGTCCGATTAGCGCGTATCGTCGGCCCATGCCCACGCCATACGGATCCCGCGGCGGCATGGCGTTCAGCGCGGACGAGCTGCGTGTGCTCCGCCGTGCCCTCGCCATC (double strand) [sven3229 promoter probe]”, the binding result is reported as “no binding”.
